Key:
Assay type in all cases: cell-based
[1] = test system: CD19-positive cells; test: B cell depletion from human whole blood (HWB), flow cytometry, CD19; details: human whole blood, doses from 1 to 100,000 ng/ml, 24 hrs
Method: A flow cytometry assay was used to compare the ability of S-isomer of compound of formula A, Ublituximab (Ubx), and combinations thereof to deplete B cells from human whole blood (HWB). In this assay, 50 μl of HWB sample was treated with either S-isomer of a compound of formula A (1000 nM), UBX (100 μg/ml to 0.1 μg/ml), or UBX in combination with S-isomer of a compound of formula A at 1000 nM and incubated for 24 hrs at 37° C. and 5% CO2. 20 μl of treated sample was taken in a 1.5 ml centrifuge tube and labeled with CD45 FITC and CD19 PE or CD20 FITC antibody and incubated in the dark for 1 hour at RT. 1 ml of red blood cell (RBC) lysing solution was added, and tubes were centrifuged at 3000 rpm for 10 minutes. […] The tubes were vortexed, and 5000 events were acquired on a Guava® easyCyte™ flow cytometer and analyzed with Incyte Software.
Gated population of CD45-positive cells were further analyzed for CD19. The number of cells that were positive for CD45 and CD19 was calculated, and the data was expressed as the percentage of CD19 positive cells in the population. CD20-positive populations were gated with fluorescence positive minus unlabeled cells, and the data was expressed as the percentage of CD20-positive cells in the population. The loss of CD19/CD20 population from control was calculated and expressed as % depletion with respect to control.

[2] = test system: DB Cells; test: cell cycle assay, flow cytometry; details: for G0/G1, percentage of the cell population / G2/M, percentage of the cell population / S, percentage of the cell population / Sub G0, percentage of the cell population: DB cells, 72 h
Method: (§1) A cell cycle assay reagent (Millipore) was used to determine the effect of S-isomer of a compound of formula A, UBX, and combinations thereof on the cell cycle in cancerous cells. […] The cells were transferred to microfuge tubes to receive 50 μl of cell cycle reagent and incubated for 30 minutes at RT away from light. Cells were then diluted with 300-400 μl PBS, and a minimum of 10,000 events were acquired on a Guava® easyCyte™ flow cytometer. The data was analyzed with Express Pro software and the percentage of the cell population in different cell cycle stages with respect to control was presented in histograms.

[3] = test system: Daudi cells; test: cell cycle assay, flow cytometry; details: for G0/G1, percentage of the cell population / G2/M, percentage of the cell population / S, percentage of the cell population / Sub G0, percentage of the cell population: 72 h
Method: as §1

[4] = test system: Raji Cells; test: cell cycle assay, flow cytometry; details: for G0/G1, percentage of the cell population / G2/M, percentage of the cell population / S, percentage of the cell population / Sub G0, percentage of the cell population: 72 h
Method: as §1

[5] = test system: U266B1 cells; test: cell cycle assay, flow cytometry; details: for G0/G1, percentage of the cell population / G2/M, percentage of the cell population / S, percentage of the cell population / Sub G0, percentage of the cell population: 72 h
Method: as §1

B1: UBX: monoclonal antibody that targets a specific and unique epitope on CD20, bioengineered for enhanced clinical activity and potency (antibody, V domains shown)
VH: QAYLQQSGAELVRPGASVKMSCKASGYTFTSYNMHWVKQTPRQGLEWIGGIYPGNGDTSYNQKFKGKATLTVGKSSSTAYMQLSSLTSEDSAVYFCARYDYNYAMDYWGQGTSVTVSS
VL: QIVLSQSPAILSASPGEKVTMTCRASSSVSYMHWYQQKPGSSPKPWIYATSNLASGVPARFSGSGSGTSYSFTISRVEAEDAATYYCQQWTFNPPTFGGGTRLEIK
modifications: antibody fragment
depletion of B-cells [1]: 20-30%
G0/G1, percentage of the cell population ([2]; UBX 0.001 ng/ml): 54.38
G2/M, percentage of the cell population ([2]; UBX 0.001 ng/ml): 34.02
S, percentage of the cell population ([2]; UBX 0.001 ng/ml): 9.45
Sub G0, percentage of the cell population ([2]; UBX 0.001 ng/ml): 0.59
G0/G1, percentage of the cell population ([2]; UBX 0.01 ng/ml): 54.99
G2/M, percentage of the cell population ([2]; UBX 0.01 ng/ml): 34.79
S, percentage of the cell population ([2]; UBX 0.01 ng/ml): 7.73
Sub G0, percentage of the cell population ([2]; UBX 0.01 ng/ml): 0.73
G0/G1, percentage of the cell population ([2]; UBX 0.1 ng/ml): 56.34
G2/M, percentage of the cell population ([2]; UBX 0.1 ng/ml): 38.40
S, percentage of the cell population ([2]; UBX 0.1 ng/ml): 12.34
Sub G0, percentage of the cell population ([2]; UBX 0.1 ng/ml): 1.10
G0/G1, percentage of the cell population ([2]; UBX 1 ng/ml): 51.36
G2/M, percentage of the cell population ([2]; UBX 1 ng/ml): 40.07
S, percentage of the cell population ([2]; UBX 1 ng/ml): 6.46
Sub G0, percentage of the cell population ([2]; UBX 1 ng/ml): 0.52
G0/G1, percentage of the cell population ([2]; UBX 10 ng/ml): 49.52
G2/M, percentage of the cell population ([2]; UBX 10 ng/ml): 40.56
S, percentage of the cell population ([2]; UBX 10 ng/ml): 10.07
Sub G0, percentage of the cell population ([2]; UBX 10 ng/ml): 0.56
G0/G1, percentage of the cell population ([2]; UBX 100 ng/ml): 45.98
G2/M, percentage of the cell population ([2]; UBX 100 ng/ml): 46.55
S, percentage of the cell population ([2]; UBX 100 ng/ml): 7.66
Sub G0, percentage of the cell population ([2]; UBX 100 ng/ml): 0.67
cell cycle effect ([2]; Diffuse Large B-cell Lymphoma (DB) cells, 72 hours): modest G2/M arrest
G0/G1, percentage of the cell population ([3]; UBX 0.001 ng/ml): 38.12
G2/M, percentage of the cell population ([3]; UBX 0.001 ng/ml): 41.95
S, percentage of the cell population ([3]; UBX 0.001 ng/ml): 17.90
Sub G0, percentage of the cell population ([3]; UBX 0.001 ng/ml): 2.03
G0/G1, percentage of the cell population ([3]; UBX 0.01 ng/ml): 36.24
G2/M, percentage of the cell population ([3]; UBX 0.01 ng/ml): 37.83
S, percentage of the cell population ([3]; UBX 0.01 ng/ml): 19.15
Sub G0, percentage of the cell population ([3]; UBX 0.01 ng/ml): 6.77
G0/G1, percentage of the cell population ([3]; UBX 0.1 ng/ml): 37.40
G2/M, percentage of the cell population ([3]; UBX 0.1 ng/ml): 32.42
S, percentage of the cell population ([3]; UBX 0.1 ng/ml): 17.06
Sub G0, percentage of the cell population ([3]; UBX 0.1 ng/ml): 13.42
G0/G1, percentage of the cell population ([3]; UBX 1 ng/ml): 40.52
G2/M, percentage of the cell population ([3]; UBX 1 ng/ml): 26.99
S, percentage of the cell population ([3]; UBX 1 ng/ml): 17.54
Sub G0, percentage of the cell population ([3]; UBX 1 ng/ml): 14.95
G0/G1, percentage of the cell population ([3]; UBX 10 ng/ml): 40.92
G2/M, percentage of the cell population ([3]; UBX 10 ng/ml): 28.08
S, percentage of the cell population ([3]; UBX 10 ng/ml): 13.23
Sub G0, percentage of the cell population ([3]; UBX 10 ng/ml): 17.77
G0/G1, percentage of the cell population ([3]; UBX 100 ng/ml): 43.66
G2/M, percentage of the cell population ([3]; UBX 100 ng/ml): 28.55
S, percentage of the cell population ([3]; UBX 100 ng/ml): 9.28
Sub G0, percentage of the cell population ([3]; UBX 100 ng/ml): 19.55
cell cycle effect ([3]; 72 hours): increased the number of Sub GO cells
G0/G1, percentage of the cell population ([4]; UBX 0.001 ng/ml): 50.52
G2/M, percentage of the cell population ([4]; UBX 0.001 ng/ml): 33.66
S, percentage of the cell population ([4]; UBX 0.001 ng/ml): 10.61
Sub G0, percentage of the cell population ([4]; UBX 0.001 ng/ml): 4.35
G0/G1, percentage of the cell population ([4]; UBX 0.01 ng/ml): 54.54
G2/M, percentage of the cell population ([4]; UBX 0.01 ng/ml): 25.08
S, percentage of the cell population ([4]; UBX 0.01 ng/ml): 12.65
Sub G0, percentage of the cell population ([4]; UBX 0.01 ng/ml): 5.51
G0/G1, percentage of the cell population ([4]; UBX 0.1 ng/ml): 41.11
G2/M, percentage of the cell population ([4]; UBX 0.1 ng/ml): 22.00
S, percentage of the cell population ([4]; UBX 0.1 ng/ml): 8.93
Sub G0, percentage of the cell population ([4]; UBX 0.1 ng/ml): 23.73
G0/G1, percentage of the cell population ([4]; UBX 1 ng/ml): 39.72
G2/M, percentage of the cell population ([4]; UBX 1 ng/ml): 15.35
S, percentage of the cell population ([4]; UBX 1 ng/ml): 14.82
Sub G0, percentage of the cell population ([4]; UBX 1 ng/ml): 27.32
G0/G1, percentage of the cell population ([4]; UBX 10 ng/ml): 45.01
G2/M, percentage of the cell population ([4]; UBX 10 ng/ml): 12.90
S, percentage of the cell population ([4]; UBX 10 ng/ml): 8.15
Sub G0, percentage of the cell population ([4]; UBX 10 ng/ml): 31.86
G0/G1, percentage of the cell population ([4]; UBX 100 ng/ml): 22.19
G2/M, percentage of the cell population ([4]; UBX 100 ng/ml): 33.74
S, percentage of the cell population ([4]; UBX 100 ng/ml): 11.05
Sub G0, percentage of the cell population ([4]; UBX 100 ng/ml): 34.78
cell cycle effect ([4]; 72 hours): increased the number of Sub GO cells
G0/G1, percentage of the cell population ([5]; UBX 0.001 ng/ml): 60.79
G2/M, percentage of the cell population ([5]; UBX 0.001 ng/ml): 30.49
S, percentage of the cell population ([5]; UBX 0.001 ng/ml): 6.00
Sub G0, percentage of the cell population ([5]; UBX 0.001 ng/ml): 1.34
G0/G1, percentage of the cell population ([5]; UBX 0.01 ng/ml): 59.32
G2/M, percentage of the cell population ([5]; UBX 0.01 ng/ml): 35.48
S, percentage of the cell population ([5]; UBX 0.01 ng/ml): 6.57
Sub G0, percentage of the cell population ([5]; UBX 0.01 ng/ml): 0.74
G0/G1, percentage of the cell population ([5]; UBX 0.1 ng/ml): 57.53
G2/M, percentage of the cell population ([5]; UBX 0.1 ng/ml): 35.64
S, percentage of the cell population ([5]; UBX 0.1 ng/ml): 7.63
Sub G0, percentage of the cell population ([5]; UBX 0.1 ng/ml): 1.35
G0/G1, percentage of the cell population ([5]; UBX 1 ng/ml): 58.81
G2/M, percentage of the cell population ([5]; UBX 1 ng/ml): 36.07
S, percentage of the cell population ([5]; UBX 1 ng/ml): 7.07
Sub G0, percentage of the cell population ([5]; UBX 1 ng/ml): 0.51
G0/G1, percentage of the cell population ([5]; UBX 10 ng/ml): 56.85
G2/M, percentage of the cell population ([5]; UBX 10 ng/ml): 37.86
S, percentage of the cell population ([5]; UBX 10 ng/ml): 6.34
Sub G0, percentage of the cell population ([5]; UBX 10 ng/ml): 0.78
G0/G1, percentage of the cell population ([5]; UBX 100 ng/ml): 52.95
G2/M, percentage of the cell population ([5]; UBX 100 ng/ml): 39.65
S, percentage of the cell population ([5]; UBX 100 ng/ml): 7.91
Sub G0, percentage of the cell population ([5]; UBX 100 ng/ml): 1.95
cell cycle effect ([5]; 72 hours): modest G2/M arrest
